Target: neuraminidase (NA) from A/Brisbane/02/2018 (H1N1), wild type (influenza A virus A/Brisbane/02/2018 (H1N1))
Test: non-reducing SDS-PAGE

How did the stoichiometry N turn out when “neuraminidase (NA) from A/Brisbane/02/2018 (H1N1), wild type (natural protein)” was run?
Its stoichiometry N is 2.

Source: publication PMC12456132
